The text below walks through data of paper PMC8373988 (2021).

The labels stand for the following.
B1: FICD^L258D-H363A (residues 104–445), monomeric, catalytically inactive [human] / AMPylated biotinylated-AviTag-haBiP^T229A-V461F (residues 27–635) [modified: AMP covalently attached to Thr518 (Thr518-AMP); biotin on the N-terminal Avi-tag; … (parent complex)
chain 1: LEARAALNQALEMKRQGKREKAQKLFMHALKMDPDFVDALTEFGIFSEEDKDIIQADYLYTRALTISPYHEKALVNRDRTLPLVEEIDQRYFSIIDSKVKKVMSIPKGNSALRRVMEETYYHHIYHTVAIEGNTLTLSEIRHILETRYAVPGKSDEEQNEVIGMHAAMKYINTTLVSRIGSVTISDVLEIHRRVLGYVDPVEAGRFRTTQVLVGHHIPPHPQDVEKQMQEFVQWLNSEEAMNLHPVEFAALAHYKLVYIAPFIDGNGRTSRLLMNLILMQAGYPPITIRKEQRSDYYHVLEAANEGDVRPFIRFIAKCTETTLDTLLFATTEYSVALPEAQP
chain 2: not shown
B2: FICD^H363A (residues 104–445), dimeric, catalytically inactive [human] / AMPylated biotinylated-AviTag-haBiP^T229A-V461F (residues 27–635) [modified: AMP covalently attached to Thr518 (Thr518-AMP); biotin on the N-terminal Avi-tag; AMP … (parent complex)
chain 1: B1 chain 1 with D155L
chain 2: not shown

Substitutions are numbered along the chain they refer to. Names and notes keep the numbering of the source.

One test covers variants of B1. As to the kind of experiment: BLI; 50 nM FICD analyte; immobilised BiP-AMP activated in 2 mM ATP; read at end of apo association (600 s); parent: 0.7; read off a plot.
Turning to chain 1 H28A, the response is approximately 0.2 nm.

For chain 1 E2R, the response is approximately 0.12 nm.

A further test covers variants of B1. Nature of the test: BLI; 50 nM FICD analyte, oxidised (TPRox); immobilised BiP activated in 2 mM ATP; read at end of apo association (600 s); parent: 0.68; read off a plot.
Consider chain 1 D57C, chain 1 T80C, chain 1 C318S, for which the response was approximately 0.92 nm.

Variants of B1 are the subject of a further test. As to the kind of experiment: BLI; 50 nM FICD analyte, oxidised (TPRox); immobilised BiP-AMP activated in 2 mM ATP; read at end of apo association (600 s); parent: 0.7; read off a plot.
In the case of chain 1 D57C, chain 1 T80C, chain 1 C318S, the response was approximately 0.91 nm.

Variants of B2 are the subject of a further test. Nature of the test: BLI; 50 nM FICD analyte, oxidised (TPRox); immobilised BiP activated in 2 mM ATP; read at end of apo association (600 s); parent: 0.24; read off a plot.
In the case of chain 1 D57C, chain 1 T80C, chain 1 C318S, the response is approximately 0.31 nm.

In a further test the parent is B2. As to the kind of experiment: BLI; 50 nM FICD analyte, oxidised (TPRox); immobilised BiP-AMP activated in 2 mM ATP; read at end of apo association (600 s); parent: 0.74; read off a plot.
For the variant chain 1 D57C, chain 1 T80C, chain 1 C318S, the response was approximately 0.79 nm.

The next test covers variants of B2. As to the kind of experiment: BLI; 50 nM FICD analyte; immobilised BiP activated in 2 mM ATP; read at end of apo association (600 s); parent: 0.2; read off a plot.
Regarding chain 1 L155D, the response was approximately 0.75 nm.

Another test covers variants of B2. As to the kind of experiment: BLI; 50 nM FICD analyte; immobilised BiP-AMP activated in 2 mM ATP; read at end of apo association (600 s); parent: 0.92; read off a plot.
As for chain 1 L155D, the response is approximately 0.75 nm.

Variants of B2 are the subject of another test. Nature of the test: BLI; 50 nM FICD analyte; immobilised BiP-AMP activated in 2 mM ATP; read at end of apo association (600 s); parent: 0.74; read off a plot.
Take chain 1 H28A: the response was approximately 0.66 nm.

In the case of chain 1 E2R, the response is approximately 0.73 nm.

On to chain 1 K21E, chain 1 H28A, for which the response is approximately 0.03 nm.

Regarding chain 1 K21E, the response was approximately 0.43 nm.

A further test covers variants of B2. Nature of the test: BLI; 50 nM FICD analyte; immobilised BiP activated in 2 mM ATP; read at end of apo association (600 s); parent: 0.24; read off a plot.
Turning to chain 1 E2R, the response is approximately 0.04 nm.

Consider chain 1 K21E, for which the response was approximately 0.01 nm.
